Source: patent publication US20090304580A1

Target: PAM4 antigen (human pancreatic cancer mucin, CaPan1) (human)
Assay: ELISA on target mucin antigen (FIG. 9)

B1: monovalent bsPAM4 chemical conjugate (PAM4-Fab′ x anti-DTPA-Fab′) (bispecific antibody, part only; not given: Anti-DTPA Fab′ and constant parts, V domains shown, part only)
VH: QVQLQESGPELVKPGASVKMSCKASGYTFPSYVLHWVKQKPGQGLEWIGYINPYNDGTQYNEKFKGKATLTSDKSSSTAYMELSRLTSEDSAVYYCARGFGGSYGFAYWGQGTLITVSS
VL: DIQLTQSPAIMSASPGEKVTMTCSASSSVSSSYLYWYQQKPGSSPKLWIYSTSNLASGVPARFSGSGSGTSYSLTISSMEAEDAASYFCHQWNRYPYTFGGGTKLEIKR
For B1, which EC50 is on record?
The EC50 was 30.6 nM.
